Assay results as given in publication PMC3605045, “GH1-family 6-P-β-glucosidases from human microbiome lactic acid bacteria” (Acta Crystallographica Section D: Biological Crystallography, 2013).

Substrate: O=P(O)(O)OC[C@H]1O[C@@H](Oc2ccccc2CO)[C@H](O)[C@@H](O)[C@@H]1O
Test: purified protein
Assay type: biochemical, Streptococcus mutans
Conditions: 0.1 M HEPES-NaOH pH 8.0, 2 mM NADP+, 298 K, SeMet-labelled enzyme 0.02 µM, substrate 10-2000 µM, 25.0 °C

B1: SmBgl (Streptococcus mutans UA159) (protein)
chain: MSKLPENFLWGGAVAAHQLEGGWQEGGKGISVADVMTAGRHGVAREITAGVLEGKYYPNHEAIDFYHHYKEDVKLFAEMGFKCFRTSIAWTRIFPKGDEAEPNEAGLQFYDDLFDECLKYGIEPVVTLSHFELPYHLVTEYGGFTNRKVIDFFVHFAEVCFRRYKDKVKYWMTFNEINNQANYQEDFAPFTNSGIVYKEGDDREAIMYQAAHYELVASARAVKIGHAINPNLNIGCMVAMCPIYPATCNPKDILMAQKAMQKRYYFADVHVHGFYPEHIFKYWERKAIKVDFTERDKKDLFEGTVDYIGFSYYMSFVIDAHRENNPYYDYLETEDLVKNPYVKASDWDWQIDPQGLRYALNWFTDMYHLPLFIVENGFGAIDQVEADGMVHDDYRIDYLGAHIKEMIKAVDEDGVELMGYTPWGCIDLVSAGTGEMRKRYGFIYVDKDDEGKGTLKRSPKLSFNWYKEVIASNGDDI
notes: full length, 477 residues, ~55 kDa, homodimer; His6 cut by TEV, SNA- left at N-terminus; E. coli BL21 (DE3) Magic, pMCSG7; SeMet-labelled protein in kinetic assays
Km: 1020 ± 70 µM
